Data reported in the supplement of paper PMC10567573.

B1: RSPH3 (parent)
chain: QRLEEQERRHREEKERRKKQQWEI
B2: TRIM35 (parent)
chain: PTCPVCKDRASPADLRTNHTLNNL

Variants of: B1
Experiment: protein stability index of a GFP-peptide fusion (GPS, HEK-293T) (PSI 1-6); higher = more stable
Conditions: c terminus: a fixed tail appended
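Note: lentivirally expressed fusions sorted by FACS into six bins by GFP to DsRed ratio, PSI derived from sequencing read proportions per bin multiplied by bin number.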

Protein stability index of substitutions, site by site:
E4: G 5.08 | Y 3.67 | H 4.18 | T 4.15 | W 4.04 | Q 4.46 | L 4.46 | V 3.99 | A 4.21 | I 4.17 | C 4.38 | M 4.1 | D 4.56 | P 4.48 | S 4.84 | R 3.84 | K 4.44 | N 4.9 | F 4.47
E7: C 4.15 | K 4.36 | A 4.36 | G 3.95 | H 4.28 | P 4.75 | I 3.86 | M 3.38 | L 4.55 | F 4.41 | D 4.04 | Q 3.38 | N 4.25
E5: M 4.59 | S 4.5 | N 3.67 | I 4.62 | P 4.42 | Q 5.01 | G 4.53 | H 4.59 | F 3.61 | C 4.38 | W 3.98 | D 4.55 | V 4.58 | K 3.39 | R 4.13 | A 4.63 | T 4.01 | L 4.44 | Y 4.28
R2: P 4.1 | I 3.83 | T 5.02 | C 4.58 | Q 4.94 | F 4.48 | Y 4.07 | D 5.14 | H 4.53 | V 4.47 | S 5 | A 4.57 | G 4.54 | W 3.79 | N 5.06 | K 4.26 | E 5.24 | M 4.06 | L 4.63
Q6: G 4.59 | C 4.63 | P 4.47 | K 4.19 | D 4.6 | M 3.96 | A 4.9 | F 4 | L 4.49 | N 4.4 | Y 4.48 | H 4.39 | I 4.62 | R 4.42 | V 4.85 | E 4.91 | W 4.18 | S 4.82 | T 4.81
L3: Y 4.43 | R 5.08 | D 4.82 | S 4.91 | P 5 | H 4.54 | A 4.37 | K 4.4 | I 5 | G 4.75 | M 4.81 | N 4.59 | F 4.2 | W 4.06 | E 5.28 | V 4.82 | T 4.99 | C 4.36 | Q 4.72
Q1: W 4.13 | F 4.28 | I 4.4 | P 5.21 | H 5.33 | D 4.59 | T 4.78 | Y 4.42 | N 4.5 | R 4.49 | K 4.29 | E 4.86 | G 4.83 | L 4.35 | S 4.66 | A 4.69 | C 3.83 | V 4.81 | M 4.76

Variants of: B2
Experiment: as above
Conditions: c terminus: a fixed tail appended

Protein stability index: each site, then its substitutions
L24: M 2.8 | R 1.82 | Q 3.36 | W 3 | Y 2.76 | A 3.89 | K 3.37 | V 3.56 | C 3.94 | P 3.83 | E 4.03 | N 3.91 | G 3.83 | T 3.62 | H 3.58 | D 4.37 | I 3.5 | F 3.32 | S 3.79
N23: R 2.37 | K 3.12 | E 3.48 | C 4.21 | I 2.1 | F 2.27 | W 2.09 | Q 3.1 | V 3.06 | G 2.92 | L 2.28 | T 2.58 | H 3.47 | S 3.18 | Y 1.88 | P 2.76 | D 3.81 | A 2.73 | M 2.47
N22: Y 2.38 | W 2.02
